We go through 8 molecules from patent US20170189524A1 (IMMUNOQURE, published 2017).

To fix the notation:
B6: recombinant human IL-20 (ligand, UniProt Q9NYY1 25-176, looked up)
chain: LKTLNLGSCVIATNLQEIRNGFSEIRGSVQAKDGNIDIRILRRTESLQDTKPANRCCLLRHLLRLYLDRVFKNYQTPDHYTLRKISSLANSFLTIKKDLRLCHAHMTCHCGEEAMKKYSQILSHFEKLEPQAAVVKALGELDILLQWMEETE
notes: also called rhIL-20; hIL-20
B8: recombinant mouse IL-20 (ligand, UniProt Q9JKV9 25-176, looked up)
chain: LKTLHLGSCVITANLQAIQKEFSEIRDSVQAEDTNIDIRILRTTESLKDIKSLDRCCFLRHLVRFYLDRVFKVYQTPDHHTLRKISSLANSFLIIKKDLSVCHSHMACHCGEEAMEKYNQILSHFIELELQAAVVKALGELGILLRWMEEML
notes: also called rmIL-20; murine IL-20

Bounds are passed on as bounds.

Assay [1] addresses T1, g1 IL-20 (fusion protein of human IL-20 with Gaussia luciferase at the IL-20 N-terminus) (human, UniProt Q9NYY1 25-176).
T1 construct: also called IL-20-Gaussia luciferase fusion protein; GLuc-IL-20; not shown: Gaussia luciferase (pGaussia1 vector)
T1 sequence (looked up): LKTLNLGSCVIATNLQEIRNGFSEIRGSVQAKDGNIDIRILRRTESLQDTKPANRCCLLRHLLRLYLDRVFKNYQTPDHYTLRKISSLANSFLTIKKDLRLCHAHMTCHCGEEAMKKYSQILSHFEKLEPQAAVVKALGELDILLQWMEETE
Description: GLuc-sandwich ELISA.

Assay [2] has as its target T2, g2 IL-20 (fusion protein of human IL-20 fused C-terminally to Gaussia luciferase) (human, UniProt Q9NYY1 25-176).
T2 construct: order of the parts inferred from 'fused; C-terminally (g2 IL-20) to Gaussia luciferase'; the wording is ambiguous; also called GLuc-IL-20; not shown: Gaussia luciferase
T2 sequence (looked up): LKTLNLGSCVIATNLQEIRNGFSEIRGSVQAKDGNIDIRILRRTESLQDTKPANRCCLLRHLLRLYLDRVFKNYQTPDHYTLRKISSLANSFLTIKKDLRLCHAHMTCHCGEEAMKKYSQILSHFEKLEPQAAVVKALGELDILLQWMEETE
Briefly: GLuc-sandwich ELISA, fusion protein captured by anti-GLuc antibody, serial dilution of MAB. In general terms: An ELISA detects its analyte on a solid surface through an enzyme-linked reagent.

For assay [3], the target named is T1, g1 IL-20 (fusion protein of human IL-20 …). Described as above.
Assay [4] has as its target T3, g1 IFNW (fusion protein of human IFNW with Gaussia luciferase) (human, UniProt P05000 22-195).
T3 construct: also called IFNW-Gaussia luciferase; human IFNW-Gaussia luciferase fusion protein; not shown: Gaussia luciferase
Briefly: LCBA cross-competition, g1 IFNW preincubated with soluble antibody (FIG. 18).

For assay [5], the target named is B8. Briefly: competition GLuc-sandwich ELISA: soluble mouse IL-20 titrated against antibody 1 µg/ml on captured g2 IL-20.
The target in assay [6] is T4, Type I IL-20 receptor (IL-20RA/IL-20RB) on transfected HEK 293T MSR cells (human, UniProt Q9UHF4 30-553; Q6UXL0 30-311).
T4 construct: whole, on cells; also called IL-20 receptor Type I; IL20RA-Myc-DDK and IL20RB-Myc-DDK; not shown: Myc-DDK tag
T4 sequence (looked up) 1: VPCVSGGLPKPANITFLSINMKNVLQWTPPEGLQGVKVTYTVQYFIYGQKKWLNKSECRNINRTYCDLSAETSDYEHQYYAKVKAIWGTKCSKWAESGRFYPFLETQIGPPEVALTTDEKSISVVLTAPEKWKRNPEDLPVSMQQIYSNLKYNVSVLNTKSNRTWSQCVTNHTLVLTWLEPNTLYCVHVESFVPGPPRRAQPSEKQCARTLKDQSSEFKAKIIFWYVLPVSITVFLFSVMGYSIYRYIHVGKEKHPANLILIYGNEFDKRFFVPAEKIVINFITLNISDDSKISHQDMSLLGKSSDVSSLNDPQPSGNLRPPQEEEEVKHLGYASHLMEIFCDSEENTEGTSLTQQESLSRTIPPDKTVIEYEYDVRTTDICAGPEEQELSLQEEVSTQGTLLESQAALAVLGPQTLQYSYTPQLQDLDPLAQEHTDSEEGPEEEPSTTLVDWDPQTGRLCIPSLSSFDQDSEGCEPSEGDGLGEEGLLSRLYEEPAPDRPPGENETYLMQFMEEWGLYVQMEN
T4 sequence (looked up) 2: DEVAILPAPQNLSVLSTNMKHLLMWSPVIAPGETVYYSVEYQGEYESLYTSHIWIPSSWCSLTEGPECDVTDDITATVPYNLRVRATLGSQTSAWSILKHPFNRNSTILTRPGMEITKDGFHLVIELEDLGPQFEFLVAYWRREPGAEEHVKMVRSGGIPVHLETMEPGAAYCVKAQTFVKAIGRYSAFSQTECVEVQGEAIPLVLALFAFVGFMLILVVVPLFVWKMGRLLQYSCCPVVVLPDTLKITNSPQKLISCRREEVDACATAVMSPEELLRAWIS
Briefly: LCBA, competition with g1 IL-20 on cells expressing Type I IL-20 receptor.

Assay [7] concerns the target T5, peptide 19 of human IL-20, NYQTPDHYTLRKISSLAN (human).
T5 construct: spotted on a glass microarray through a hydrophilic linker
T5 peptide: NYQTPDHYTLRKISSLAN
Description: 18mer peptide microarray of human IL-20.

The target in assay [8] is T6, corresponding 18mer peptide derived from mouse IL-20 (differs from the human IL-20 101-118-peptide at Y104H … (mouse)).
T6 construct: also called corresponding peptide derived from mouse IL-20
T6 peptide: PDHHTLRKISSLANSFLI
Briefly: 18mer peptide microarray of murine IL-20.

The target of assay [9] is T1, g1 IL-20 (fusion protein of human IL-20 …). Briefly: chemiluminescent cell-binding assay (FIG. 8D): inhibition of g1 IL-20 binding to HEK 293T MSR cells expressing IL-20 receptor; receptor type for this value not stated.
In assay [10] the target is T7, peptide 20 of human IL-20, 101-PDHYTLRKISSLANSFLT-118 (human).
T7 construct: spotted on a glass microarray through a hydrophilic linker; also called human IL-20 101-118-peptide
T7 peptide: PDHYTLRKISSLANSFLT
Description: 18mer peptide microarray of human IL-20, Cy5 anti-human IgG detection.

The target of assay [11] is B8. Description: cell-based or functional assay.
Assay [12] addresses B6. Description: cell-based or functional assay.
Assay [13] concerns the target T4, Type I IL-20 receptor (IL-20RA/IL-20RB) …. Briefly: LCBA, competition with g1 IL-20 (FIG. 7E).

T3 sequence (P05000 22-195): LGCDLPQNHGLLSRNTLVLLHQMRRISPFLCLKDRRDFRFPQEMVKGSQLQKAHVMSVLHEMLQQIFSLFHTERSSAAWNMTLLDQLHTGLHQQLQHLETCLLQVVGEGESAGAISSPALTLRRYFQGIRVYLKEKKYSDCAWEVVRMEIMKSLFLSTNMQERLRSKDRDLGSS

B1: antibody 7D1 (antibody, human IgG1, lambda, V domains shown)
VH: EVQLVASGGDFIQPGRSLRLSCAASGFKFDDYAMFWVRQVPGRGLEWVSGISWSSDKMAYVDSVKGRFTISRDNAKNTLYLQMNNLRPDDTAFYYCAKGGFSSVWNYFDFWGQGTLVTVSS
VL: QSVLTQPPSASGTPGQTVIISCSGTTSNIGSNTVSWYRQLPGAAPKLLIFTYNQRPSGVPDRFSGSKSGTSASLAISGLQSDDEADYYCAVWDDALGGWVFGGGTKLTVLG
notes: IgG1, lambda; also called MAb 7D1
As a reminder, the EC50 is the concentration needed to bring the measured effect to its halfway point. Turning to B1, the results for the EC50 in [1], in [2] and in assay [3] were greater than 5 µg/mL, 0.0271 µg/mL and 5.87 µg/mL, respectively.

B2: antibody 26B9 (soluble) (antibody, human IgG1, kappa, V domains shown)
VH: QILLQESGPGLVKPTETLSLTCSVSGDSISDSSHYWAWIRQPPGKGPEWIGSVYFSSMTHYNPSLKSRVSISVDKPKNQFSLKVTSVTVADTATYYCARQALARVGAMNWFDPWGQGSLVTVSS
VL: DIIMTQSPDSLPVSLGEGVTINCKSSQSVFFTSSNKSCLAWYQQKPGKSPKLLIYWASTRQSGVPDRFRGSGSGTDFSLTITSLQAEDVAVYFCQQCQTSPPTFGGGTRLEIKR
notes: IgG1, kappa; also called soluble 26B9
On to B2, for which the binding result in assay [4] is recorded as “binds”.

B3: antibody 31B4 (antibody, human IgG1, kappa, V domains shown)
VH: QIQLQESGPGLVRPTETLSLTCSVSGDSISQSSHYWAWIRQPPGKGPEWIGSVYFSSMTHYNPSLTSRVSISIDKAMNKFSLKVTSVTVADTATYYCARQALARVGAMNWFDPWGQGSLVTVSS
VL: DIIMTQSPESLPVSLGEGVTINCKSSQSVFFTSSNRSCLAWYQQKPGQSPKLLIYWASTRQSGVPDRFTGSGSGTDFSLTIAGLQVEDVAVYFCQQCHASPPTFGGGTRLELRR
notes: IgG1, kappa; clonally related to 26B9
For B3, the binding result in assay [4] is listed as “binds”.

B4: antibody 6E11 (antibody, IgG1, V domains shown)
VH: QVQLVQSGAEVKKPGSSVKVSCKASGGTFRNYAINWVRQAPRQGLEWMGSLVPMFTSPTYAQKFRGRVTISADESTATSSMELTSLTSEDTAVYFCSADGYKGGLFYGMNVWGQGTTVTVSS
VL: DIVLTQSPESLAVSLGERATINCKSSQSVLYSSNSKNYLAWFQQKPGQPPKLLIYWASTRESGVPDRFSGSGSGTDFTLTITSLQAEDVAVYYCHQYHTLPRTFGHGTKVEIKR
notes: IgG1; also called MAb 6E11
As for B4, the binding result in assay [5] was “no binding (tested: 10 µg/ml to 4.6 ng/ml)”. Further, the results for the EC50 in [2] and in assay [3] were 0.347 µg/mL and 0.128 µg/mL, respectively.

B5: antibody 2A11 (antibody, IgG1, V domains shown)
VH: QVHLVQSGAEVKKPGSSVKVSCKASGGTFNNFPMSWVRQAPGRGLEWMAGIIPVFGSANYAQQFHGRVTISADISTSTVSMELNDLKSEDTGVYYCAISGDEDNWIMNFWGQGTLVTVSS
VL: QSLLTQPPSVSGAPGQRVTISCTGSSSNIGAGYDVHWYQQVPGTAPKLLIYGNRNRPSGVPDRFSGSKSGTSASLAITGLQAEDEADYYCQSYDSSLSGHAVFGGGTKVTVLR
notes: IgG1, lambda; also called MAb 2A11
With B5, the EC50 in assay [2] was found to be 0.0065 µg/mL; in [3] it was 0.0098 µg/mL.

Consider B6, for which, in assay [6], the binding result is “binds”.

B7: antibody 20A10 (antibody, human IgG4, kappa, V domains shown)
VH: QVQLVQSGAEVKKPGSSVKVSCKTSGGTFSTSTLSWVRQAPGQGLEWLGGMIPILSRTTYAQKFQGRLTITADEPTSTSYMELSSLKSEDTAVYYCATEGEVSAAHNYYYGMDVWGQGTTVTVSS
VL: DIVLTQSPLYLPVTPGEPASISCRSSQSLLHGNGHNYLDWYLQKPGQSPQLLIYLGSNRASGVPDRFSGSGSGTDFTLKISRVEAEDVGVYYCMQTLHTVFTFGPGTRVDIKR
notes: Recombinant human-derived antibody; also called MAb 20A10; 20A0
The term IC50 denotes the concentration that gives 50% inhibition. Low readings indicate greater potency in that assay, high ones weaker potency in that assay. For B7, the binding result in assay [7] is given as “no binding”; in assay [8], “no binding”; in [10], “binds”. Further, the IC50 in assay [9] was found to be 0.00403 µg/mL. Further, the EC50 is 0.021 µg/mL in assay [2] and 0.0186 µg/mL in assay [3]. Moreover, the “IC 50 in the pSTAT3 Western blot assay (25 ng/ml rmIL-20, Type I IL-20 receptor)” value in [11] amounted to 1870 ng/ml. Besides, the “IC 50 in the KZ136-NLuc reporter assay” value in assay [12] amounted to 0.33 µg/mL.

Take B8: in assay [13], the binding result is reported as “binds”.
